Measurements as given in IntAct's records for PubMed 22035699.

B1: 5-hydroxytryptamine receptor 1A (Homo sapiens), P08908 (parent)
chain: MDVLSPGQGNNTTSPPAPFETGGNTTGISDVTVSYQVITSLLLGTLIFCAVLGNACVVAAIALERSLQNVANYLIGSLAVTDLMVSVLVLPMAALYQVLNKWTLGQVTCDLFIALDVLCCTSSILHLCAIALDRYWAITDPIDYVNKRTPRRAAALISLTWLIGFLISIPPMLGWRTPEDRSDPDACTISKDHGYTIYSTFGAFYIPLLLMLVLYGRIFRAARFRIRKTVKKVEKTGADTRHGASPAPQPKKSVNGESGSRNWRLGVESKAGGALCANGAVRQGDDGAALEVIEVHRVGNSKEHLPLPSEAGPTPCAPASFERKNERNAEAKRKMALARERKTVKTLGIIMGTFILCWLPFFIVALVLPFCESSCHMPTLLGAIINWLGYSNSLLNPVIYAYFNKDFQNAFKKIIKCKFCRQ

Variants of: B1
Conditions: with fgfr1_human FGFR1, P11362
fgfr1_human FGFR1, P11362, sequence (P11362 whole entry, looked up): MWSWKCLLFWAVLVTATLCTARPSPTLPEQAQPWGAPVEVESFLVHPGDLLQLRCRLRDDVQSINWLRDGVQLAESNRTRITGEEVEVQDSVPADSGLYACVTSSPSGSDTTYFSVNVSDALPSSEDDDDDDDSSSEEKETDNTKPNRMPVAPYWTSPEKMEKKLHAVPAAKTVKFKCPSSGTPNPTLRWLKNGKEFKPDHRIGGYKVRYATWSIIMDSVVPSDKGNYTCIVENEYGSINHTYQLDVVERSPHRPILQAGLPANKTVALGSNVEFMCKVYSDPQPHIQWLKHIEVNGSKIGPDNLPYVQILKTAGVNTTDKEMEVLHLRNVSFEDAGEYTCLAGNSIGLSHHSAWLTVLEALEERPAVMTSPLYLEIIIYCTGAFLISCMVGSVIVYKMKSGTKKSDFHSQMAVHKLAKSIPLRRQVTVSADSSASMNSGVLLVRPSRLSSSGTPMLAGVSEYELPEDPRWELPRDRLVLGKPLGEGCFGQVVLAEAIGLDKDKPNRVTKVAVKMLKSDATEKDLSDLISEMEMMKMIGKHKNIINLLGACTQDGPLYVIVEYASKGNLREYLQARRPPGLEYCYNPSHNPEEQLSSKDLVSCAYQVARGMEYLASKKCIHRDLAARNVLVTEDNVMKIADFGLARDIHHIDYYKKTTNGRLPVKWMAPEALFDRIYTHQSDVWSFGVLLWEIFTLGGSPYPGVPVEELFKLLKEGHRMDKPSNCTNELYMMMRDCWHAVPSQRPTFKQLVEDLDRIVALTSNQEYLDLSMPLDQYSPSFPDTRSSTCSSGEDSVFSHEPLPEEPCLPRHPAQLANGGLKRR

| Variant | effect of a mutation on the interaction |
| --- | --- |
| D406A;F407A;Q408A;N409A;F411A;K412A;K413A;I414A;I415A;K416A | decreasing interaction |
